Residue numbers refer to the chain shown, from its start. Numbers in names are those of the source.
B1: anti-IL-6 Fab, parental molecule (Fab, V domains shown)
VH: EVQLVESGGGLVQPGGSLRLSCAASGFTFSPFAMSWVRQAPGKGLEWVAKISPGGSWTYYSDTVTGRFTFSLDTSKSTAYLQMNSLRAEDTAVYYCARQLWGYYALDIWGQGTLVTVSS
VL: DIQLTQSPSSLSASVGDRVTITCSASISVSYMYWYQQKPGKAPKLLIYDMSNLASGVPSRFSGSGSGTDFTLTISSLQPEDFATYYCMQWSGYPYTFGQGTKVEIK
notes: Fab expressed in E. coli TG1, tested as filtered lysate; also called wild-type; parent molecule
B2: anti-IL-6 Fab, heavy chain A49S (Fab, V domains shown)
VH: B1 VH with A49S
VL: B1 VL
notes: see m39
B3: anti-IL-6 Fab, heavy chain A49T (Fab, V domains shown)
VH: B1 VH with A49T
VL: B1 VL
notes: see m39
B4: anti-IL-6 Fab, heavy chain D62Q (Fab, V domains shown)
VH: B1 VH with D62Q
VL: B1 VL
notes: see m39
B5: anti-IL-6 Fab, heavy chain F27G (Fab, V domains shown)
VH: B1 VH with F27G
VL: B1 VL
notes: see m39
B6: anti-IL-6 Fab, heavy chain F27P (Fab, V domains shown)
VH: B1 VH with F27P
VL: B1 VL
notes: see m39
B7: anti-IL-6 Fab, heavy chain F27R (Fab, V domains shown)
VH: B1 VH with F27R
VL: B1 VL
notes: see m39
B8: anti-IL-6 Fab, heavy chain F27S (Fab, V domains shown)
VH: B1 VH with F27S
VL: B1 VL
notes: see m39
B9: anti-IL-6 Fab, heavy chain F27V (Fab, V domains shown)
VH: B1 VH with F27V
VL: B1 VL
notes: see m39
B10: anti-IL-6 Fab, heavy chain F29H (Fab, V domains shown)
VH: B1 VH with F29H
VL: B1 VL
notes: see m39
B11: anti-IL-6 Fab, heavy chain F29Y (Fab, V domains shown)
VH: B1 VH with F29Y
VL: B1 VL
notes: see m39
B12: anti-IL-6 Fab, heavy chain F32G (Fab, V domains shown)
VH: B1 VH with F32G
VL: B1 VL
notes: see m39
B13: anti-IL-6 Fab, heavy chain F32V (Fab, V domains shown)
VH: B1 VH with F32V
VL: B1 VL
notes: see m39
B14: anti-IL-6 Fab, heavy chain G26R (Fab, V domains shown)
VH: B1 VH with G26R
VL: B1 VL
notes: see m39
B15: anti-IL-6 Fab, heavy chain G26S (Fab, V domains shown)
VH: B1 VH with G26S
VL: B1 VL
notes: see m39
B16: anti-IL-6 Fab, heavy chain G66D (Fab, V domains shown)
VH: B1 VH with G66D
VL: B1 VL
notes: see m39
B17: anti-IL-6 Fab, heavy chain G66E (Fab, V domains shown)
VH: B1 VH with G66E
VL: B1 VL
notes: see m39
B18: anti-IL-6 Fab, heavy chain I51R (Fab, V domains shown)
VH: B1 VH with I51R
VL: B1 VL
notes: see m39
B19: anti-IL-6 Fab, heavy chain I108F (Fab, V domains shown)
VH: B1 VH with I108F
VL: B1 VL
notes: see m39
B20: anti-IL-6 Fab, heavy chain L106F (Fab, V domains shown)
VH: B1 VH with L106F
VL: B1 VL
notes: see m39
B21: anti-IL-6 Fab, heavy chain M34W (Fab, V domains shown)
VH: B1 VH with M34W
VL: B1 VL
notes: see m39
B22: anti-IL-6 Fab, heavy chain R98G (Fab, V domains shown)
VH: B1 VH with R98G
VL: B1 VL
notes: see m39
B23: anti-IL-6 Fab, heavy chain S30G (Fab, V domains shown)
VH: B1 VH with S30G
VL: B1 VL
notes: see m39
B24: anti-IL-6 Fab, heavy chain S30W (Fab, V domains shown)
VH: B1 VH with S30W
VL: B1 VL
notes: see m39
B25: anti-IL-6 Fab, heavy chain S30Y (Fab, V domains shown)
VH: B1 VH with S30Y
VL: B1 VL
notes: see m39
B26: anti-IL-6 Fab, heavy chain S35H (Fab, V domains shown)
VH: B1 VH with S35H
VL: B1 VL
notes: see m39
B27: anti-IL-6 Fab, heavy chain S35Q (Fab, V domains shown)
VH: B1 VH with S35Q
VL: B1 VL
notes: see m39
B28: anti-IL-6 Fab, heavy chain S56H (Fab, V domains shown)
VH: B1 VH with S56H
VL: B1 VL
notes: see m39
B29: anti-IL-6 Fab, heavy chain S56R (Fab, V domains shown)
VH: B1 VH with S56R
VL: B1 VL
notes: see m39
B30: anti-IL-6 Fab, heavy chain S61A (Fab, V domains shown)
VH: B1 VH with S61A
VL: B1 VL
notes: see m39
B31: anti-IL-6 Fab, heavy chain S61K (Fab, V domains shown)
VH: B1 VH with S61K
VL: B1 VL
notes: see m39
B32: anti-IL-6 Fab, heavy chain S61R (Fab, V domains shown)
VH: B1 VH with S61R
VL: B1 VL
notes: see m39
B33: anti-IL-6 Fab, heavy chain T28A (Fab, V domains shown)
VH: B1 VH with T28A
VL: B1 VL
notes: see m39
B34: anti-IL-6 Fab, heavy chain T28E (Fab, V domains shown)
VH: B1 VH with T28E
VL: B1 VL
notes: see m39
B35: anti-IL-6 Fab, heavy chain T28K (Fab, V domains shown)
VH: B1 VH with T28K
VL: B1 VL
notes: see m39
B36: anti-IL-6 antibody, heavy chain T65L, G66D / light chain M32L, M50D, N52S, M88Q (antibody, human IgG1, V domains shown)
VH: B1 VH with T65L, G66D
VL: B1 VL with M32L, M50D, N52S, M88Q
notes: Human IgG1
B37: anti-IL-6 antibody, heavy chain T65P, G66D / light chain M32L, M50D, N52S, M88Q (antibody, human IgG1, V domains shown)
VH: B1 VH with T65P, G66D
VL: B1 VL with M32L, M50D, N52S, M88Q
notes: Human IgG1
B38: anti-IL-6 antibody, heavy chain T65R, G66D / light chain M32L, M50D, N52S, M88Q (antibody, human IgG1, V domains shown)
VH: B1 VH with T65R, G66D
VL: B1 VL with M32L, M50D, N52S, M88Q
notes: Human IgG1
B39: anti-IL-6 antibody, heavy chain T65S, G66D / light chain M32L, M50D, N52S, M88Q (antibody, human IgG1, V domains shown)
VH: B1 VH with T65S, G66D
VL: B1 VL with M32L, M50D, N52S, M88Q
notes: Human IgG1
B40: anti-IL-6 antibody, heavy chain T65V, G66D / light chain M32L, M50D, N52S, M88Q (antibody, human IgG1, V domains shown)
VH: B1 VH with T65V, G66D
VL: B1 VL with M32L, M50D, N52S, M88Q
notes: Human IgG1
B41: anti-IL-6 antibody, heavy chain T65W, G66D / light chain M32L, M50D, N52S, M88Q (antibody, human IgG1, V domains shown)
VH: B1 VH with T65W, G66D
VL: B1 VL with M32L, M50D, N52S, M88Q
notes: Human IgG1
B42: anti-IL-6 antibody, heavy chain T65Y, G66D / light chain M32L, M50D, N52S, M88Q (antibody, human IgG1, V domains shown)
VH: B1 VH with T65Y, G66D
VL: B1 VL with M32L, M50D, N52S, M88Q
notes: Human IgG1

Molecular target: recombinant human IL-6 (human, UniProt P05231 30-212)
Sequence (P05231 30-212 limits assumed): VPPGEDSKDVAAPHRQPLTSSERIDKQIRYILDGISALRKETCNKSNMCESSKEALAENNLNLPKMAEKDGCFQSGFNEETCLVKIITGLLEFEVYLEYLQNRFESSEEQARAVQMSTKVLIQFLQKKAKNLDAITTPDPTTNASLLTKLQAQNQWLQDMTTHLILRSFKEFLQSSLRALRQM
Test: SPR, IL-6 on CM5 chip, Fab lysate, 25 C
Experimental: Three ranges of antigen density (100-150 RU, 300-400 RU, 400-600 RU) were obtained by using variable flow times for each chip channel, later blocked with ethanolamine. Supernatants of the 96-well filtered culture lysates were injected at 50 μL/min for 120 seconds. Fitting of dissociation curves (300 seconds) to single exponential decay curve was used for the determination of dissociation rates (koff). Chip surfaces were regenerated with 10 mM Glycine pH 1.7 solution injected at 50 μL/min during 60 seconds after every cycle of sample binding and dissociation.

| Binder | koff [s⁻¹] |
| --- | --- |
| B1 | 0.00494 |
| B2 | 0.0054 |
| B3 | 0.00575 |
| B4 | 0.00434 |
| B5 | 0.00401 |
| B6 | 0.00418 |
| B7 | 0.00394 |
| B8 | 0.00393 |
| B9 | 0.00405 |
| B10 | 0.00524 |
| B11 | 0.00511 |
| B12 | 0.00525 |
| B13 | 0.00541 |
| B14 | 0.00381 |
| B15 | 0.00375 |
| B16 | 0.00607 |
| B17 | 0.00505 |
| B18 | 0.00315 |

| Binder | koff [s⁻¹] |
| --- | --- |
| B19 | 0.0034 |
| B20 | 0.00601 |
| B21 | 0.00397 |
| B22 | 0.0048 |
| B23 | 0.00377 |
| B24 | 0.00369 |
| B25 | 0.00352 |
| B26 | 0.00392 |
| B27 | 0.00354 |
| B28 | 0.0409 |
| B29 | 0.00509 |
| B30 | 0.00604 |
| B31 | 0.00558 |
| B32 | 0.00585 |
| B33 | 0.00396 |
| B34 | 0.00428 |
| B35 | 0.00408 |

Molecular target: human IL-6 (human, UniProt P05231 30-212)
Sequence (P05231 30-212 limits assumed): as above
Test: SPR (Biacore), supernatant antibody on Protein A chip, IL-6 flowed, 37 C
Experimental: Antibodies were captured on a Protein A chip (GE) by injecting 1:20 cell supernatant dilutions at 10 μL/min for 60 seconds. […] The sensor chip was regenerated by a 60 seconds injection of 10 mM Glycine pH 1.7 at the flow rate of 50 μL/min. […] For this setup, 1 μg/mL of purified antibody was injected over a Protein A chip at 10 μL/min for 25 seconds. […] The sensor chip was regenerated by a 60 seconds injection of 10 mM Glycine pH 1.7 at flow rate of 50 μL/min. Data analysis for supernatant and purified samples were performed using BIAevaluation software (GE). All sensorgrams were double reference subtracted and fit using a 1:1 Langmuir binding model.

| Binder | Kd [nM] | koff [s⁻¹] | kon [M⁻¹ s⁻¹] |
| --- | --- | --- | --- |
| B36 | 0.293 | 0.000446 | 1.53e+06 |
| B37 | 0.601 | 0.00108 | 1.79e+06 |
| B38 | 0.327 | 0.000532 | 1.63e+06 |
| B39 | 0.31 | 0.000441 | 1.42e+06 |
| B40 | 0.281 | 0.000551 | 1.96e+06 |
| B41 | 0.322 | 0.000384 | 1.19e+06 |
| B42 | 0.237 | 0.000367 | 1.55e+06 |

Source: patent US20240209076A1 (KODIAK SCIENCES, published 2024)
